Laboratory results taken from paper PMC3931408 (Journal of Agricultural and Food Chemistry, 2014).
Values belong to the molecule of their own block, whether it stands above or below them.

Key:
[1] = molecular target: L-arabinose isomerase from Lactobacillus reuteri DSMZ 17509 (Lactobacillus reuteri); test: SEC; 190 mL Sephacryl S300 column, 50 mM potassium phosphate buffer pH 7.0, 150 mM NaCl; molecular weight marker kit for gel filtration; oligomer size from the apparent mass against the calculated subunit mass
[2] = molecular target: the molecule itself; test: as above

stoichiometry N [1]: 6
Molecule: L-arabinose isomerase from Lactobacillus reuteri DSMZ 17509 (enzyme)

B1: D-xylose isomerase from Lactobacillus reuteri DSMZ 17509 (enzyme, UniProt Q5QG16 1-449, looked up)
chain: MADLWNNIDKIEYEGPHKSIKSGLFYQYYNPDEVILGKKMKDWLRFSVAYWHTFDQRLVDPFGDGTAQRPYDKYSDPMDCALAKVDYAFEFYNKLGVDFLCFHDRDLAPEGDTLRETNKNLDRVVDKIVEYQKATGMKVLWNTSNLFTNPRFLEGAGTAPSAEIYAYAAAQLKHSLEVGKRVGSENYVFWGGREGYESLWNTDMKREQSHIAKFFHMAKDYANEIGFDAQMLLEPKPKEPTTHQYDFDAATTINFMCEYGLDKDFKLNLEGNHANLAGHTYQHEIRVAREAGLLGSLDANQGDKLIGWDIDEYPSNLYETTAAMWEVIQNGSIGPRGGLNFDAKPRRTSFKPVDLFYGHIVGMDSFAAGLRVAAAMKEDGFLDDIIKERYSTWDEGLGKSIEDGNENFASLEEKVIDTPQSELLAATHSDHLEEIKDTINHYMIETLAK
stoichiometry N [2]: 4
